In US20080058263A1 (published 2008):
Changes are numbered by the printed parent chain.

T1: VEGFR-3-Fc (UniProt P35916 25-328)
T1 construct: domain: first three Ig domains; conditioned supernatant of 293T cells; also called VEGFR-3-Fc fusion protein; not shown: Fc fragment of the pIg vector
T1 sequence (looked up): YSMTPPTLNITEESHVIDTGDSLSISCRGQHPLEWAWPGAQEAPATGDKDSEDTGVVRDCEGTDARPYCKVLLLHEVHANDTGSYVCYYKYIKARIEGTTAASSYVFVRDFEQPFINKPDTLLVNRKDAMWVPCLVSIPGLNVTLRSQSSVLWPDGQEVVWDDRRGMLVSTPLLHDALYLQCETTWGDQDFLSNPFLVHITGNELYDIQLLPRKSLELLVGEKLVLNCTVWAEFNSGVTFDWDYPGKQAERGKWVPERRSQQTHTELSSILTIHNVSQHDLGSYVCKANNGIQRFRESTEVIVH

B1: 11-3 (ligand)
chain: GQNHHEVVKFMDVYQRSYCHPIETLVDIFQEYPDEIEYIFKPSCVPLMRCGGCCNSEGLQCVPTEESNITMQIMRIKPHQGQHIGEMSFLQHNKCECRPKKD
B2: 11-5 (ligand)
chain: B1 chain with S56D, Q60E, L90A, Q91N, N93T, K94S, E96R, R98M, P99S, K101L
B3: 11-7 (ligand)
chain: B1 chain with L90A, Q91N, N93T, K94S, E96R, R98M, P99S, K101L
B4: 72-2 (ligand)
chain: GQNHHEVVKSIDNEWRKTQCMPREVCIDVGKEFGVATNTFFKPPCVSVYRCGGCCNDEGLECMNTSTSYLSKTLFEIKPHQGQHIGEMSFLQHNKCECRPKKD
B5: 22-4 (ligand)
chain: B4 chain with G1A, Q2H, N3Y, H4N, H5T, V7I, V8L, D57S, E61Q
B6: 72-6 (ligand)
chain: B4 chain with L91A, Q92N, N94T, K95S, E97R, R99M, P100S, K102L
B7: 72-8 (ligand)
chain: B4 chain with D57S, E61Q, L91A, Q92N, N94T, K95S, E97R, R99M, P100S, K102L
B8: 72-4 (ligand)
chain: B4 chain with D57S, E61Q
B9: 72-10 (ligand)
chain: GQNHHEVVKSIDNEWRKTQCMPREVCIDVGKEFGVATNTFFKPPCVSVYRCGGCCNDEGLECMNTSTSYLSKTLFEITVPLSQGPKPVTISFLQHNKCECRPKKD
B10: 72-12 (ligand)
chain: B9 chain with D57S, E61Q
B11: 84-1 (ligand)
chain: AHYNTEILKFMDVYQRSYCHPIETLVDIFQEFGVATNTFFKPSCVPLMRCGGCCNDEGLECVPTEESNITMQIMRIKPHQGQHIGEMSFLQHNKCECRPKKD
B12: 84-5 (ligand)
chain: B11 chain with L90A, Q91N, N93T, K94S, E96R, R98M, P99S, K101L
B13: 84-3 (ligand)
chain: B11 chain with D56S, E60Q
B14: 82-15 (ligand)
chain: AHYNTEILKFMDVYQRSYCHPIETLVDIFQEFGVATNTFFKPPCVSVYRCGGCCNSEGLQCVPTEESNITMQIMRITVPLSQGPKPVTISFANHTSCRCMSKLD
B15: 11-9 (ligand)
chain: GQNHHEVVKFMDVYQRSYCHPIETLVDIFQEYPDEIEYIFKPSCVPLMRCGGCCNDEGLECVPTEESNITMQIMRITVPLSQGPKPVTISFLQHNKCECRPKKD
B16: 11-11 (ligand)
chain: B15 chain with D56S, E60Q
B17: 82-14 (ligand)
chain: AHYNTEILKFMDVYQRSYCHPIETLVDIFQEFGVATNTFFKPPCVSVYRCGGCCNDEGLECMNTSTSYLSKTLFEITVPLSQGPKPVTISFANHTSCRCMSKLD
B18: 82-16 (ligand)
chain: B17 chain with D56S, E60Q
B19: 11-1 (ligand)
chain: GQNHHEVVKFMDVYQRSYCHPIETLVDIFQEYPDEIEYIFKPSCVPLMRCGGCCNDEGLECVPTEESNITMQIMRIKPHQGQHIGEMSFLQHNKCECRPKKDLVFEQKLISEEDLNSAVDHHHHHH
B20: 22-3 (ligand)
chain: AHYNTEILKSIDNEWRKTQCMPREVCIDVGKEFGVATNTFFKPPCVSVYRCGGCCNSEGLQCVPTEESNITMQIMRIKPHQGQHIGEMSFLQHNKCECRPKKD
B21: 61-15 (ligand)
chain: GQNHHEVVKFMDVYQRSYCHPREVCIDVGKEYPDEIEYIFKPSCVPLMRCGGCCNSEGLQCVPTEESNITMQIMRITVPLSQGPKPVTISFANHTSCRCMSKLD
B22: 11-15 (ligand)
chain: B21 chain with R22I, V24T, C25L, I26V, V28I, G29F, K30Q
B23: 41-13 (ligand)
chain: B21 chain with G1A, Q2H, N3Y, H4N, H5T, V7I, V8L, S56D, Q60E
B24: 61-11 (ligand)
chain: B21 chain with A92L, N93Q, T95N, S96K, R98E, M100R, S101P, L103K
B25: 43-15 (ligand)
chain: AHYNTEILKFMDVYQRSYCHPREVCIDVGKEYPDEIEYIFKPPCVSVYRCGGCCNSEGLQCVPTEESNITMQIMRITVPLSQGPKPVTISFANHTSCRCMSKLD
B26: 62-15 (ligand)
chain: GQNHHEVVKFMDVYQRSYCHPREVCIDVGKEFGVATNTFFKPPCVSVYRCGGCCNSEGLQCVPTEESNITMQIMRITVPLSQGPKPVTISFANHTSCRCMSKLD
B27: 11-13 (ligand)
chain: B15 chain with L92A, Q93N, N95T, K96S, E98R, R100M, P101S, K103L
B28: 41-15 (ligand)
chain: B25 chain with P43S, S46P, V47L, Y48M
B29: 13-15 (ligand)
chain: GQNHHEVVKFMDVYQRSYCHPIETLVDIFQEYPDEIEYIFKPPCVSVYRCGGCCNSEGLQCVPTEESNITMQIMRITVPLSQGPKPVTISFANHTSCRCMSKLD
B30: 61-9 (ligand)
chain: B15 chain with I22R, T24V, L25C, V26I, I28V, F29G, Q30K

These binders were tested against T2, VEGFR-1-Fc (UniProt P17948 27-338) (assay: receptor-Fc IP).
T2 construct: domain: first three Ig domains; expressed in Drosophila S2 cells, purified on Protein A sepharose; also called VEGFR-1-Fc fusion protein; not shown: Fc fragment from the Signal-pIgPlus vector
How it was run: (§1)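 fusion protein at 400 ng/ml in an IP mix (PBS, 1.5% BSA, 0.06% Tween 20, 3 μg/ml heparin) was combined with sample supernatant at a 1:2 ratio. Bound ligand captured by immunoprecipitation with pentahistidine antibody.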

T2 sequence (P17948 27-338): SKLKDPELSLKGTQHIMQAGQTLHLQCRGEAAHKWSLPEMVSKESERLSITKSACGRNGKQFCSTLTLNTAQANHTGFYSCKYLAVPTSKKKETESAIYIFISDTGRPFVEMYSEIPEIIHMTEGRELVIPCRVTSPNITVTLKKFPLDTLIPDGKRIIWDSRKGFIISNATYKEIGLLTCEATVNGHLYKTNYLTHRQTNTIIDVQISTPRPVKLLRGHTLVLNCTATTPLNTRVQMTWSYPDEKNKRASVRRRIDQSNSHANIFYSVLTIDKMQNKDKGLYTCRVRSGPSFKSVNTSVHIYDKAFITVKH

Row | binding result | Binder
1 | binds | B1
2 | binds | B2
3 | binds | B3
4 | no binding | B4
5 | no binding | B5
6 | no binding | B6
7 | no binding | B7
8 | no binding | B8
9 | no binding | B9
10 | no binding | B10
11 | binds | B11
12 | binds | B12
13 | binds | B13
14 | no binding | B14
15 | binds | B15
16 | binds | B16
17 | no binding | B17
18 | no binding | B18
19 | binds | B19
20 | no binding | B20
21 | no binding | B21
22 | binds | B22
23 | no binding | B23
24 | no binding | B24
25 | no binding | B25
26 | no binding | B26
27 | binds | B27
28 | no binding | B28
29 | binds | B29
30 | no binding | B30

Each binder was assayed against T3, VEGFR-2-Fc (UniProt P35968 20-322) (assay: receptor-Fc IP).
T3 construct: domain: first 3 Ig domains; conditioned supernatant of 293T cells; also called VEGFR-2-Fc fusion protein; not shown: Fc fragment of the pIg vector
How it was run: as §1

T3 sequence (P35968 20-322): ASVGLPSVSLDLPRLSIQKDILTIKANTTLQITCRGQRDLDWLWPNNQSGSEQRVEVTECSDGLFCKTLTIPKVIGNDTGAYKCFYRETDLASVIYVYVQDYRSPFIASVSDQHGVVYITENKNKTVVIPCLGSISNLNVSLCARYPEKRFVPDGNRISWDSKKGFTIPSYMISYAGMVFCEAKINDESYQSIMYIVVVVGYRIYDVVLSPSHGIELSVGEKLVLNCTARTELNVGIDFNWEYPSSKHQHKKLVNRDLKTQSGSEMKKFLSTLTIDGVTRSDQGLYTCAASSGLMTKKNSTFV

Row | binding result | Binder
31 | binds | B1
32 | binds | B2
33 | binds | B3
34 | binds | B4
35 | binds | B5
36 | no binding | B6
37 | binds | B7
38 | binds | B8
39 | binds | B9
40 | binds | B10
41 | no binding | B11
42 | no binding | B12
43 | binds | B13
44 | binds | B14
45 | no binding | B15
46 | binds | B16
47 | no binding | B17
48 | no binding | B18
49 | binds | B19
50 | no binding | B20
51 | no binding | B21
52 | binds | B22
53 | no binding | B23
54 | no binding | B24
55 | no binding | B25
56 | no binding | B26
57 | no binding | B27
58 | no binding | B28
59 | no binding | B29
60 | no binding | B30

What follows are binders tested against T1, VEGFR-3-Fc (assay: receptor-Fc IP).
How it was run: as §1

Row | binding result | Binder
61 | no binding | B1
62 | no binding | B2
63 | no binding | B3
64 | binds | B4
65 | binds | B5
66 | binds | B6
67 | binds | B7
68 | binds | B8
69 | binds | B9
70 | binds | B10
71 | no binding | B11
72 | no binding | B12
73 | no binding | B13
74 | binds | B14
75 | no binding | B15
76 | no binding | B16
77 | binds | B17
78 | binds | B18
79 | no binding | B19
80 | binds | B20
81 | no binding | B21
82 | no binding | B22
83 | no binding | B23
84 | no binding | B24
85 | no binding | B25
86 | no binding | B26
87 | no binding | B27
88 | no binding | B28
89 | no binding | B29
90 | no binding | B30
